Results published in patent US20070292347A1 (LONDON HEALTH SCIENCES CENTRE RESEARCH, published 2007).
Square brackets hold non-standard residues; d marks the D form. Ends that are not written are not given here. Cit = NC(=O)NCCC[C@H](N)C(=O)O

B1: Vim R70Cit, altered human vimentin peptide 65-77 (peptide)
peptide: SAVRA[Cit]SSVPGVR
notes: Synthetic peptide; also called Vimentin R70Cit; citrulline containing vimentin peptide
B2: Vim 65-77, human vimentin peptide 65-77 (peptide)
peptide: SAVRARSSVPGVR
notes: Synthetic peptide (Genemed Synthesis); also called Vimentin 65-77; unmodified vimentin peptide

Experiments:
[1] = target: T1, purified HLA-DRB1*0404 molecule (human); experiment: peptide competition assay, displacement of radio-labelled peptide probe from purified MHC class II
T1 construct: Purified MHC class II molecule
Text: (§1) Results are expressed as the inverse of the IC₅₀ values measured in nM.

[2] = target: T2, purified HLA-DRB1*0401 molecule (human); experiment: as above
T2 construct: Purified MHC class II molecule
Text: as §1

[3] = target: T3, purified HLA-DRB1*0101 molecule (human); experiment: as above
T3 construct: Purified MHC class II molecule
Text: as §1

[4] = target: T4, purified HLA-DRB1*1302 molecule (human); experiment: peptide competition assay on purified MHC class II
T4 construct: Purified MHC class II molecule
Text: as §1

[5] = target: T5, purified HLA-DRB1*0301 molecule (human); experiment: peptide competition assay on purified MHC class II
T5 construct: Purified MHC class II molecule
Text: as §1

[6] = target: T6, purified HLA-DRB1*0802 molecule (human); experiment: peptide competition assay on purified MHC class II
T6 construct: Purified MHC class II molecule
Text: as §1

[7] = target: T7, purified HLA-DRB1*1101 molecule (human); experiment: peptide competition assay on purified MHC class II
T7 construct: Purified MHC class II molecule
Text: as §1

Row | Binder | fold higher affinity compared to the unmodified peptide (Vim 65-77) [1] [fold] | fold higher affinity compared to the unmodified peptide (Vim 65-77) [2] [fold] | fold higher affinity compared to the unmodified peptide (Vim 65-77) [3] [fold] | binding result [4] | binding result [5] | binding result [6] | binding result [7]
1 | B1 | 20 | 90 | 100 | – | – | – | –
2 | B2 | – | – | – | binds | binds | binds | binds
